Results: patent publication US20250084169A1 (published 2025)

T1: recombinant human Fc gamma RIIa (CD32a) 131R (human, UniProt P12318 36-218)
T1 chain: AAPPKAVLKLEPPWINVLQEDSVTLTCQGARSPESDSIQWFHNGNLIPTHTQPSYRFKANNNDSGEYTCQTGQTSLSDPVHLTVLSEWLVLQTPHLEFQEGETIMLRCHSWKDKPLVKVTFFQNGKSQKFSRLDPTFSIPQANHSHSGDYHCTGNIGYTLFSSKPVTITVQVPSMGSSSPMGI

T2: recombinant human full-length CD20 (human, UniProt P11836 1-297)
T2 chain: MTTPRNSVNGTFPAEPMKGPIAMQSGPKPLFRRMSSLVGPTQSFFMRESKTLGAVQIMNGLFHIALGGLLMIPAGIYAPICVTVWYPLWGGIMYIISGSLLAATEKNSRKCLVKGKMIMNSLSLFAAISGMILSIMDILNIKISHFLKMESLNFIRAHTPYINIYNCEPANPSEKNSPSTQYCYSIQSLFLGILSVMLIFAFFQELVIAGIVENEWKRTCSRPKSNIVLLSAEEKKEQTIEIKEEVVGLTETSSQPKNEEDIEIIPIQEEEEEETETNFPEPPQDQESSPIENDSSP

T3: recombinant human CD19 (human, UniProt P15391 20-291)
T3 chain: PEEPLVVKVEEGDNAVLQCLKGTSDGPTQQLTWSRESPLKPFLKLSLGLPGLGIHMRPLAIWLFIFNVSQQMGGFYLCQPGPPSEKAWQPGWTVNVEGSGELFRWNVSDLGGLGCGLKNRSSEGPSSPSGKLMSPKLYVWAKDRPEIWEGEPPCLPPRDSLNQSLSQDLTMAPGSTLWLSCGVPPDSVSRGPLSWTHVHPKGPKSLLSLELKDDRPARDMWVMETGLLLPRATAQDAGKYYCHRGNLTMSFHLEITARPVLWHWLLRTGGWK

T4: recombinant human Fc gamma RI (CD64) (human, UniProt P12314 16-288)
T4 chain: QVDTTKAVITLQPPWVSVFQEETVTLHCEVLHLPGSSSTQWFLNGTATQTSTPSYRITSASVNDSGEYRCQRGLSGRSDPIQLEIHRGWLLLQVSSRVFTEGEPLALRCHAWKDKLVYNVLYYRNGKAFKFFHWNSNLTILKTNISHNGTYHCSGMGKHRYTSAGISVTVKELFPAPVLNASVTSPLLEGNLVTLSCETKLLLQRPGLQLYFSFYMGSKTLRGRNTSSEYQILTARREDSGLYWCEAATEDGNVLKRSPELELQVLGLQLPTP


Columns and labels:
Test in all cases: SPR
[1] = target: T1, recombinant human Fc gamma RIIa (CD32a) …
[2] = target: T2, recombinant human full-length CD20
complement component C1q = complement component C1q (UniProt P02745 23-245; P02746 28-253; P02747 29-245)
Sequence of complement component C1q (P02745 23-245, chain 1 of 3): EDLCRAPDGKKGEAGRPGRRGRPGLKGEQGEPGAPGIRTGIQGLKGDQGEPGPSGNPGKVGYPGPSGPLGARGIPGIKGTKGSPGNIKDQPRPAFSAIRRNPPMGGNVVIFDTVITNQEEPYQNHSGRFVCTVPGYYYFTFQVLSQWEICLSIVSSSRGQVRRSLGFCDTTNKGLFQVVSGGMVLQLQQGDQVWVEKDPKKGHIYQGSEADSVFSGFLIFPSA
Sequence of complement component C1q (P02746 28-253, chain 2 of 3): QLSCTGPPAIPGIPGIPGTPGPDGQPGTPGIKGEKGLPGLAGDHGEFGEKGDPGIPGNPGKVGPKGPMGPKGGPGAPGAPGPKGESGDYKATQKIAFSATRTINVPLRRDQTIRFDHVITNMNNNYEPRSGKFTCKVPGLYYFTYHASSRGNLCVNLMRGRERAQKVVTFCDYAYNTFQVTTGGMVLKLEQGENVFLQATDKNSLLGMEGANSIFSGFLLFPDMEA
Sequence of complement component C1q (P02747 29-245, chain 3 of 3): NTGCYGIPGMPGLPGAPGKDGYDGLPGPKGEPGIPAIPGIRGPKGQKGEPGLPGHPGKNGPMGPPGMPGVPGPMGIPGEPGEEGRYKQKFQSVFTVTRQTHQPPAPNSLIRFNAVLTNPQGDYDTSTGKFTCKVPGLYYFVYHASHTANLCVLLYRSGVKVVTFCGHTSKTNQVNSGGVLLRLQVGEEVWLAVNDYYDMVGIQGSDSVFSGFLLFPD

recombinant human CD19 = target: T3, recombinant human CD19
[3] = target: T4, recombinant human Fc gamma RI (CD64)
[4] = target: recombinant human Fc gamma RIIIa (CD16a) 158V (human, UniProt P08637 17-208)
Sequence of recombinant human Fc gamma RIIIa (CD16a) 158V (P08637 17-208 F176V): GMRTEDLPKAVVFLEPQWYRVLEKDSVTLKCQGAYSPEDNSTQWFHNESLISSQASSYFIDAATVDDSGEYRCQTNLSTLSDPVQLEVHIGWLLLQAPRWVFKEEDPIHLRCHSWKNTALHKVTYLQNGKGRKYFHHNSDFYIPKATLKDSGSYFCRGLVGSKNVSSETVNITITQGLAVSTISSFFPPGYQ

Binder	Kd [1]	Kd [2]	Kd (complement component C1q)	Kd (recombinant human CD19)	Kd [3]	Kd [4]
HB1905 (bispecific antibody) light 1: DIQMTQTTSSLSASLGDRVTISCRASQDISKYLNWYQEKPDGTVKLLIYHTSRLHSGVPSRFSGSGSGTDYSLTISNLEQEDIATYFCQQGNTLPYTFGGGTKLEIKRTVAAPSVFIFPPSDEQLKSGTASVKCLLNNFYPREAKVQWKVDNALQSGNSQESVTEQDSKDSTYSLSSTLTLSKADYEKHKVYACEVTHQGLSSPVTKSFNRGEC heavy 1: EVKLQESGPGLVAPSQSLSVTCTVSGVSLPDYGVSWIRKPPRKGLEWLGVIWGSETTYYNSALKSRLTIIKDNSKSQVFLKMSSLQTDDTAIYYCAKHYYYGGSYAMDYWGQGTSVTVSSASTKGPSVFPLAPSSKSTSGGTAALGCLVKDYFPEPVTVSWNSGALTSGVHTFPAVLQSSGLYSLESVVTVPSSSLGTQTYICNVNHKPSNTKVDKKVEPKSCTDWSPYADQSIKVRISLKSALGDKAYEWNDNEMYLFRSSVAYAMRQYFLKVKNQMILFGEEDVRVANLKPRISFNFFVTAPKNVSDIIPRTEVEKAIRMSRSRINDAFRLNDNSLEFLGIQPTLGPPNQPPVSTSTSPTRSMAPGAVHLPQPVSTRDKTHTCPPCPAPELLGGPSVFLFPPKPKDTLMISRTPEVTCVVVDVSHEDPEVKFNWYVDGVEVHNAKTKPREEQYNSTYRVVSVLTVLHQDWLNGKEYKCKVSNKALPAPIEKTISKAKGQPREPQVCTLPPSRDELTKNQVSLSCAVKGFYPSDIAVEWESNGQPENNYKTTPPVLDSDGSFFLVSKLTVDKSRWQQGNVFSCSVMHEALHNRFTQKSLSLSPG light 2: QVQLQQPGAELVKPGASVKMSCKASGYTFTSYNMHWVKKTPGRGLEWIGAIYPGNGDTSYNQKFKGKATLTADKSSSTAYMQLSSLTSEDSAVYYCARSTYYGGDWYFNVWGAGTLVTVSSASVAAPSVFIFPPSDEQLKSGTASVECLLNNFYPREAKVQWKVDNALQSGNSQESVTEQDSKDSTYSLSSTLTLSKADYEKHKVYACEVTHQGLSSPVTKSFNRGEC heavy 2: not shown	380 nM	< 0.18 nM	115 nM	4.8 nM	0.234 nM	493 nM
HB1906 (bispecific antibody) light 1: DIQMTQTTSSLSASLGDRVTISCRASQDISKYLNWYQEKPDGTVKLLIYHTSRLHSGVPSRFSGSGSGTDYSLTISNLEQEDIATYFCQQGNTLPYTFGGGTKLEIKRTVAAPSVFIFPPSDEQLKSGTASVKCLLNNFYPREAKVQWKVDNALQSGNSQESVTEQDSKDSTYSLSSTLTLSKADYEKHKVYACEVTHQGLSSPVTKSFNRGEC heavy 1: EVKLQESGPGLVAPSQSLSVTCTVSGVSLPDYGVSWIRKPPRKGLEWLGVIWGSETTYYNSALKSRLTIIKDNSKSQVFLKMSSLQTDDTAIYYCAKHYYYGGSYAMDYWGQGTSVTVSSASTKGPSVFPLAPSSKSTSGGTAALGCLVKDYFPEPVTVSWNSGALTSGVHTFPAVLQSSGLYSLESVVTVPSSSLGTQTYICNVNHKPSNTKVDKKVEPKSCTDWSPYADQSIKVRISLKSALGDKAYEWNDNEMYLFRSSVAYAMRQYFLKVKNQMILFGEEDVRVANLKPRISFNFFVTAPKNVSDIIPRTEVEKAIRMSRSRINDAFRLNDNSLEFLGIQPTLGPPNQPPVSTSTSPTRSMAPGAVHLPQPVSTRDKTHTCPPCPAPELLGGPSVFLFPPKPKDTLMISRTPEVTCVVVDVSHEDPEVKFNWYVDGVEVHNAKTKPREEQYNSTYRVVSVLTVLHQDWLNGKEYKCKVSNKALPAPIEKTISKAKGQPREPQVCTLPPSRDELTKNQVSLSCAVKGFYPSDIAVEWESNGQPENNYKTTPPVLDSDGSFFLVSKLTVDKSRWQQGNVFSCSVMHEALHNRFTQKSLSLSPG light 2: QVQLQQPGAELVKPGASVKMSCKASGYTFTSYNMHWVKETPGRGLEWIGAIYPGNGDTSYNQKFKGKATLTADKSSSTAYMQLSSLTSEDSAVYYCARSTYYGGDWYFNVWGAGTLVTVSSASVAAPSVFIFPPSDEQLKSGTASVECLLNNFYPREAKVQWKVDNALQSGNSQESVTEQDSKDSTYSLSSTLTLSKADYEKHKVYACEVTHQGLSSPVTKSFNRGEC heavy 2: not shown	329 nM	0.423 nM	115 nM	3.8 nM	0.259 nM	488 nM
Rituximab (antibody) VH: not shown VL: QIVLSQSPAILSASPGEKVTMTCRASSSVSYIHWFQQKPGSSPKPWIYATSNLASGVPVRFSGSGSGTSYSLTISRVEAEDAATYYCQQWTSNPPTFGGGTKLEIKRTVAAPSVFIFPPSDEQLKSGTASVVCLLNNFYPREAKVQWKVDNALQSGNSQESVTEQDSKDSTYSLSSTLTLSKADYEKHKVYACEVTHQGLSSPVTKSFNRGEC		0.596 nM				
